The target of experiment [1] is AmVHPO R425D mutant (vanadium-dependent haloperoxidase from Acaryochloris marina, R425D) (Acaryochloris marina MBIC 11017). In words: crystal structure; hanging drop vapor diffusion at 20 °C, protein 15 mg/mL, reservoir 0.1 M Tris pH 8.5, 2 M NH4H2PO4, 0.5 mM K3VO4; R425S solved without and with 1 mM 1,3,5-trimethoxybenzene (TMB).
In experiment [2] the target is T1, AmVHPO (vanadium-dependent haloperoxidase from Acaryochloris marina) (Acaryochloris marina, UniProt B0C4R0, R425S).
T1 construct: gene AM1_4975; codon-optimized synthetic gene in pET28-based vector, His-tag, E. coli BL21 (DE3); dodecamer (hexamer of dimers); active site/substrate tunnel formed by two adjacent subunits
T1 sequence (B0C4R0 entry or part of it R425S): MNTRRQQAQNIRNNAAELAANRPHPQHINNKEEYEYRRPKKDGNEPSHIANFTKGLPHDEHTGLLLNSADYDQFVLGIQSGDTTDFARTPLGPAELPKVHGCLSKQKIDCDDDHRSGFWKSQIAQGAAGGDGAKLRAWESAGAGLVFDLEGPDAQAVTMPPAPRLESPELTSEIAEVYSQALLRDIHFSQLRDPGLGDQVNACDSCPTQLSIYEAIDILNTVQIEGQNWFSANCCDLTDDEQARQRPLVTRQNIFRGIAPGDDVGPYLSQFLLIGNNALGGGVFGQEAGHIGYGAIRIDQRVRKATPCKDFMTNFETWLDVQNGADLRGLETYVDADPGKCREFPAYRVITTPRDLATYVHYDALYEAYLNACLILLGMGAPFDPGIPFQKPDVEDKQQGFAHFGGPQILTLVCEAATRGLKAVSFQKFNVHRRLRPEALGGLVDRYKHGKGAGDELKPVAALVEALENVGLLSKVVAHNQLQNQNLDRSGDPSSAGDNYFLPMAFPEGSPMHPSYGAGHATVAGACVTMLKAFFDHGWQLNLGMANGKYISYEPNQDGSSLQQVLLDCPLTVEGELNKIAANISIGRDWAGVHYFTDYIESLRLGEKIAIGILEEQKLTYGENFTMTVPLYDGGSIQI
In words: X-ray co-crystal structure. In kind it is binding. Particulars: 1 mM TMB; phosphate in place of vanadate; site at interface of two adjacent subunits (Glu139, Gln399, Phe401); pH 8.5; 20 °C.

Experiment [3] deals with AmVHPO R425S mutant (vanadium-dependent haloperoxidase from Acaryochloris marina, R425S) (Acaryochloris marina MBIC 11017). The experiment is described as follows: crystal structure; hanging drop vapor diffusion at 20 °C, protein 15 mg/mL, reservoir 0.1 M Tris pH 8.5, 2 M NH4H2PO4, 0.5 mM K3VO4; R425S solved without and with 1 mM 1,3,5-trimethoxybenzene (TMB).

In turn, “AmVHPO R425D mutant (vanadium-dependent haloperoxidase from Acaryochloris marina, R425D) (enzyme)” returned a stoichiometry N in experiment [1] of 12.

As to `COc1cc(OC)cc(OC)c1` [compound 7, 1,3,5-trimethoxybenzene], the X-ray co-crystal structure in experiment [2] is 8Q22 (AmVHPO R425S mutant with TMB). As for “AmVHPO R425S mutant (vanadium-dependent haloperoxidase from Acaryochloris marina, R425S) (enzyme)”, in experiment [3], the stoichiometry N was determined as 12.

Usually stoichiometry N stands for the number of molecules, sites or subunits per partner or assembly.
